Data on 94 variants can be found in the supplement of paper PMC10567573.

To fix the notation:
B1: MGC27345 (parent)
chain: KYMPHLCQDSSGEVSCQCQLHPPR
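Note: lentivirally expressed fusions sorted by FACS into six bins by GFP to DsRed ratio, PSI derived from sequencing read proportions per bin multiplied by bin number.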

This series covers variants of B1. As to the kind of experiment: protein stability index of a GFP-peptide fusion (GPS, HEK-293T) (PSI 1-6); higher = more stable. The settings on record: c terminus: a fixed tail appended.
For the variant KYMPHGCQDSSGEVSCQCQLHPPR [L6G], the protein stability index was 2.66.

As to KYMPHFCQDSSGEVSCQCQLHPPR [L6F], the protein stability index came to 1.59.

On to KYMPHSCQDSSGEVSCQCQLHPPR [L6S], for which the protein stability index amounted to 2.98.

In the case of KYMPHECQDSSGEVSCQCQLHPPR [L6E], the protein stability index amounted to 2.71.

In the case of KYMPHNCQDSSGEVSCQCQLHPPR [L6N], the protein stability index was 1.79.

For KYMPHYCQDSSGEVSCQCQLHPPR [L6Y], the protein stability index stood at 1.96.

Turning to KYMPHRCQDSSGEVSCQCQLHPPR [L6R], the protein stability index came out at 2.05.

In the case of KYMPHDCQDSSGEVSCQCQLHPPR [L6D], the protein stability index was determined as 2.64.

KYMPHHCQDSSGEVSCQCQLHPPR [L6H]: the protein stability index was determined as 2.1.

Take KYMPHWCQDSSGEVSCQCQLHPPR [L6W]: the protein stability index was 1.53.

Regarding KYMPHKCQDSSGEVSCQCQLHPPR [L6K], the protein stability index is 2.14.

As to KYMPHQCQDSSGEVSCQCQLHPPR [L6Q], the protein stability index was found to be 2.47.

With KYMPHMCQDSSGEVSCQCQLHPPR [L6M], the protein stability index stood at 1.79.

In the case of KYMPHTCQDSSGEVSCQCQLHPPR [L6T], the protein stability index amounted to 2.34.

As for KYMPHACQDSSGEVSCQCQLHPPR [L6A], the protein stability index is 1.73.

For the variant KYMPHVCQDSSGEVSCQCQLHPPR [L6V], the protein stability index was found to be 2.65.

On to KYMPHPCQDSSGEVSCQCQLHPPR [L6P], for which the protein stability index amounted to 1.57.

Regarding KYMPHCCQDSSGEVSCQCQLHPPR [L6C], the protein stability index was 2.39.

For KYMPHLCQASSGEVSCQCQLHPPR [D9A], the protein stability index amounted to 2.73.

In the case of KYMPHLCQESSGEVSCQCQLHPPR [D9E], the protein stability index came out at 3.09.

For the variant KYMPHLCQCSSGEVSCQCQLHPPR [D9C], the protein stability index worked out at 2.97.

Turning to KYFPHLCQDSSGEVSCQCQLHPPR [M3F], the protein stability index was 1.99.

Regarding KYNPHLCQDSSGEVSCQCQLHPPR [M3N], the protein stability index was determined as 2.55.

For KYIPHLCQDSSGEVSCQCQLHPPR [M3I], the protein stability index was found to be 2.01.

As for KYSPHLCQDSSGEVSCQCQLHPPR [M3S], the protein stability index is 2.27.

Turning to KYLPHLCQDSSGEVSCQCQLHPPR [M3L], the protein stability index worked out at 2.67.

In the case of KYKPHLCQDSSGEVSCQCQLHPPR [M3K], the protein stability index is 1.96.

Consider KYYPHLCQDSSGEVSCQCQLHPPR [M3Y], for which the protein stability index stood at 2.22.

Regarding KYWPHLCQDSSGEVSCQCQLHPPR [M3W], the protein stability index turned out to be 1.99.

Turning to KYTPHLCQDSSGEVSCQCQLHPPR [M3T], the protein stability index stood at 1.96.

As for KYRPHLCQDSSGEVSCQCQLHPPR [M3R], the protein stability index amounted to 2.46.

Turning to KYGPHLCQDSSGEVSCQCQLHPPR [M3G], the protein stability index is 2.1.

For KYEPHLCQDSSGEVSCQCQLHPPR [M3E], the protein stability index amounted to 2.25.

Turning to KYQPHLCQDSSGEVSCQCQLHPPR [M3Q], the protein stability index came to 1.05.

Consider KYPPHLCQDSSGEVSCQCQLHPPR [M3P], for which the protein stability index came to 2.84.

As for KYHPHLCQDSSGEVSCQCQLHPPR [M3H], the protein stability index turned out to be 2.28.

For the variant KYCPHLCQDSSGEVSCQCQLHPPR [M3C], the protein stability index was determined as 2.94.

Turning to KYVPHLCQDSSGEVSCQCQLHPPR [M3V], the protein stability index worked out at 2.32.

Turning to KYDPHLCQDSSGEVSCQCQLHPPR [M3D], the protein stability index amounted to 2.34.

Turning to KYAPHLCQDSSGEVSCQCQLHPPR [M3A], the protein stability index is 2.24.

As for KYMPHLPQDSSGEVSCQCQLHPPR [C7P], the protein stability index was 1.77.

For KYMPHLTQDSSGEVSCQCQLHPPR [C7T], the protein stability index amounted to 1.53.

Turning to KYMPHLFQDSSGEVSCQCQLHPPR [C7F], the protein stability index stood at 2.21.

Take KYMPHLLQDSSGEVSCQCQLHPPR [C7L]: the protein stability index was 1.85.

As for KYMPHLAQDSSGEVSCQCQLHPPR [C7A], the protein stability index turned out to be 1.47.

For KYMPHLHQDSSGEVSCQCQLHPPR [C7H], the protein stability index is 1.85.

In the case of KYMPHLGQDSSGEVSCQCQLHPPR [C7G], the protein stability index was found to be 3.13.

Consider KYMPHLYQDSSGEVSCQCQLHPPR [C7Y], for which the protein stability index was found to be 1.63.

KYMPHLQQDSSGEVSCQCQLHPPR [C7Q]: the protein stability index came out at 2.1.

As to KYMPHLMQDSSGEVSCQCQLHPPR [C7M], the protein stability index was determined as 2.11.

KYMPHLKQDSSGEVSCQCQLHPPR [C7K]: the protein stability index came to 1.9.

As for KYMPHLIQDSSGEVSCQCQLHPPR [C7I], the protein stability index is 1.79.

KYMPHLNQDSSGEVSCQCQLHPPR [C7N]: the protein stability index came to 1.27.

Consider KYMPHLSQDSSGEVSCQCQLHPPR [C7S], for which the protein stability index was determined as 1.47.

For KYMPHLRQDSSGEVSCQCQLHPPR [C7R], the protein stability index was found to be 3.06.

On to KYMPHLWQDSSGEVSCQCQLHPPR [C7W], for which the protein stability index was 1.75.

As to KYMPHLEQDSSGEVSCQCQLHPPR [C7E], the protein stability index is 1.77.

KYMPHLDQDSSGEVSCQCQLHPPR [C7D]: the protein stability index turned out to be 2.11.

On to KYMEHLCQDSSGEVSCQCQLHPPR [P4E], for which the protein stability index amounted to 1.79.

Take KYMCHLCQDSSGEVSCQCQLHPPR [P4C]: the protein stability index is 3.23.

Regarding KYMIHLCQDSSGEVSCQCQLHPPR [P4I], the protein stability index worked out at 1.49.

Take KYMGHLCQDSSGEVSCQCQLHPPR [P4G]: the protein stability index worked out at 1.62.

As to KYMSHLCQDSSGEVSCQCQLHPPR [P4S], the protein stability index is 1.71.

For the variant KYMLHLCQDSSGEVSCQCQLHPPR [P4L], the protein stability index stood at 1.7.

As for KYMMHLCQDSSGEVSCQCQLHPPR [P4M], the protein stability index was found to be 2.54.

As for KYMKHLCQDSSGEVSCQCQLHPPR [P4K], the protein stability index stood at 1.58.

Consider KYMRHLCQDSSGEVSCQCQLHPPR [P4R], for which the protein stability index was 1.9.

As to KYMDHLCQDSSGEVSCQCQLHPPR [P4D], the protein stability index is 2.18.

For the variant KYMFHLCQDSSGEVSCQCQLHPPR [P4F], the protein stability index was 1.75.

Consider KYMNHLCQDSSGEVSCQCQLHPPR [P4N], for which the protein stability index came to 1.78.

In the case of KYMAHLCQDSSGEVSCQCQLHPPR [P4A], the protein stability index was 2.26.

For the variant KYMWHLCQDSSGEVSCQCQLHPPR [P4W], the protein stability index was determined as 1.67.

Turning to KYMYHLCQDSSGEVSCQCQLHPPR [P4Y], the protein stability index amounted to 2.15.

Regarding KYMHHLCQDSSGEVSCQCQLHPPR [P4H], the protein stability index came out at 1.69.

As for KYMTHLCQDSSGEVSCQCQLHPPR [P4T], the protein stability index amounted to 1.98.

Turning to KYMQHLCQDSSGEVSCQCQLHPPR [P4Q], the protein stability index was 1.99.

For KYMVHLCQDSSGEVSCQCQLHPPR [P4V], the protein stability index is 2.81.

Take KRMPHLCQDSSGEVSCQCQLHPPR [Y2R]: the protein stability index stood at 2.16.

Turning to KIMPHLCQDSSGEVSCQCQLHPPR [Y2I], the protein stability index came to 3.1.

With KAMPHLCQDSSGEVSCQCQLHPPR [Y2A], the protein stability index is 1.97.

Consider KDMPHLCQDSSGEVSCQCQLHPPR [Y2D], for which the protein stability index is 2.4.

Take KTMPHLCQDSSGEVSCQCQLHPPR [Y2T]: the protein stability index was 2.3.

For KMMPHLCQDSSGEVSCQCQLHPPR [Y2M], the protein stability index was 2.52.

In the case of KHMPHLCQDSSGEVSCQCQLHPPR [Y2H], the protein stability index is 2.51.

With KVMPHLCQDSSGEVSCQCQLHPPR [Y2V], the protein stability index worked out at 2.23.

In the case of KEMPHLCQDSSGEVSCQCQLHPPR [Y2E], the protein stability index was found to be 1.66.

In the case of KCMPHLCQDSSGEVSCQCQLHPPR [Y2C], the protein stability index is 2.44.

KNMPHLCQDSSGEVSCQCQLHPPR [Y2N]: the protein stability index was found to be 3.13.

With KFMPHLCQDSSGEVSCQCQLHPPR [Y2F], the protein stability index came to 1.86.

For KWMPHLCQDSSGEVSCQCQLHPPR [Y2W], the protein stability index stood at 2.64.

Consider KQMPHLCQDSSGEVSCQCQLHPPR [Y2Q], for which the protein stability index came to 1.78.

In the case of KSMPHLCQDSSGEVSCQCQLHPPR [Y2S], the protein stability index stood at 2.33.

Turning to KGMPHLCQDSSGEVSCQCQLHPPR [Y2G], the protein stability index turned out to be 2.87.

Consider KPMPHLCQDSSGEVSCQCQLHPPR [Y2P], for which the protein stability index is 1.79.
